According to patent US10442866 (BEIJING MABWORKS BIOTECH, dated 2019):
Numbering of substitutions follows the chain as printed. Each block holds one binder with its values, some of them ahead of it.

Experiments:
[1] = target: T1, human HVEM-mFc (TNFRSF14, ACRO, Cat#: HVM-H5255) (human, UniProt Q92956 39-202); assay: ELISA on coated recombinant human TNFRSF protein, OD450
T1 construct: bought protein; also called HVEM(TNFRSF14); not shown: mouse Fc (mFc)
T1 sequence (looked up): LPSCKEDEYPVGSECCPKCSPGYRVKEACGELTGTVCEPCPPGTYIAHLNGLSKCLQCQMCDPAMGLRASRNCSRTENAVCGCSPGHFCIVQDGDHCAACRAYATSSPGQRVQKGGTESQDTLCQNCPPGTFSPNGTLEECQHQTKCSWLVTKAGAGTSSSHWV
Description: (§1) ELISA assays were performed to determine the binding specificity of anti-OX40 antibodies to human OX40, in comparison to other human TNFRSF members with homologous amino acid sequences, following the protocol described in Example 2.

[2] = target: T2, human CD40-his (TNFRSF5, Sino Biological, Cat#:10774-H08H) (human, UniProt P25942 21-193); assay: as above
T2 construct: bought protein; also called recombinant human CD40 (TNFRSF5); not shown: His tag
Description: as §1

[3] = target: T3, human DR6 (TNFRSF21, Sino Biological, Cat#: 10175-H08H) (human, UniProt O75509 42-349); assay: as above
T3 construct: bought recombinant protein
T3 sequence (looked up): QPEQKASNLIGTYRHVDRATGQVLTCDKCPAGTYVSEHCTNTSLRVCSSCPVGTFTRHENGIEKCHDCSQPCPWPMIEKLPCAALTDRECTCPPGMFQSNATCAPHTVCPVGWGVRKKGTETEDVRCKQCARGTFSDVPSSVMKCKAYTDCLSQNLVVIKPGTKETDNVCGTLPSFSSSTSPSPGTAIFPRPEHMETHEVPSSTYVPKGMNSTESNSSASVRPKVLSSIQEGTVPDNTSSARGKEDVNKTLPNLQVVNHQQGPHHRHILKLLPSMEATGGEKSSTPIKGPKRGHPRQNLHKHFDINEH
Description: as §1

[4] = target: T4, human 4-1BB (TNFRSF9, ACRO, Cat#:41B-H522a) (human, UniProt Q07011 24-186); assay: as above
T4 construct: bought recombinant protein
Description: as §1

[5] = target: T5, human NGFR (TNFRSF16, Sino Biological, Cat#: 13184-H08H) (human, UniProt P08138 29-250); assay: as above
T5 construct: bought recombinant protein
T5 sequence (looked up): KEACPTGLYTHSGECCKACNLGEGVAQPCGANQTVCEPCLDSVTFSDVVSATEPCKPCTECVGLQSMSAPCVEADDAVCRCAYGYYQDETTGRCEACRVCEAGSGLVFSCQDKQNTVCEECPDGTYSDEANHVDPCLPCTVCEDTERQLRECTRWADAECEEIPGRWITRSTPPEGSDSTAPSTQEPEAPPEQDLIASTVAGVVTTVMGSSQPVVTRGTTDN
Description: as §1

[6] = target: T6, rhesus OX40 expressed on HEK293A cells (rhesus, UniProt P43489 29-277 (human entry)); assay: FACS on HEK293A/rhesus OX40 cells, MFI (panel without title; monkey OX40 by the legend)
T6 construct: also called HEK293A/rhOX40; HEK293A/rhesusOX40 cells
T6 chain: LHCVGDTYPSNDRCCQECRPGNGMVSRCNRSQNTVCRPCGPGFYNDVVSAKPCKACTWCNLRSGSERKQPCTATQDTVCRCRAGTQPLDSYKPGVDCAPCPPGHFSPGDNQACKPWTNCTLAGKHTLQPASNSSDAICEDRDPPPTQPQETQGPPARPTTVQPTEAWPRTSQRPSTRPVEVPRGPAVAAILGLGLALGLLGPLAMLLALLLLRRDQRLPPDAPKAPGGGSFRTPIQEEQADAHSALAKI
Description: Briefly, 10^5 HEK293A cells were seeded into each well of the 96-well plates and serially diluted anti-OX40 antibodies were added to the plates. After incubated at 4° C. for 1 hour, plates were washed 3 times with PBST. Then, an APC coupled Goat Anti-Mouse IgG (BioLegen, US, Cat#: 405308) diluted 500× was added to the plates. After incubation at 4° C. for 1 hour, the plates were washed with PBS for 3 times and then cell fluorescence was monitored using a FACS machine (BD).
Example 15 Humanized Anti-OX40 Antibodies Bound to Human or Rhesus OX40 Expressed on HEK293A Cells The humanized anti-OX40 antibodies were also tested for their ability of binding to HEK293A/huOX40 cells or HEK293A/rhOX40 cells, following the FACS analysis protocol as described in Example 5.

[7] = target: truncant 1-mFc (containing CRD2/3/4); assay: ELISA with recombinant mFc-tagged OX40 ECD proteins, OD450
Excerpt: (§2) There are four individual cysteine enriched domains (CRD) in OX40 extracellular domain (ECD), namely CRD1, CRD2, CRD3 and CRD4, respectively. Based on the structure of OX40, four recombinant OX40 proteins were generated, i.e., the full-length OX40 ECD (containing CRD1/2/3/4) (SEQ ID NO.: 38), truncant 1-mFc (containing CRD2/3/4) (SEQ ID NO.: 39), truncant 2-mFc (containing CRD/3/4) (SEQ ID NO.: 40) and truncant 3-mFc (containing CRD/4) (SEQ ID NO.: 41). All the recombinant proteins were linked with a signal peptide (SEQ ID NO.: 42) at the N terminus for protein secretion and a mFc-tag (SEQ ID NO.: 43) at the C terminus for ELISA assay. DNA sequences were synthesized and subcloned into pcDNA3.1 vector. The expression and purification of the recombinant proteins were carried out according to the protocols in Example 10. ELISA assay was performed to assess binding capacity of mAbs to recombinant OX40 proteins, following the protocol in Example 2.

[8] = target: truncant 2-mFc (containing CRD/3/4); assay: as above
Excerpt: as §2

[9] = target: full length OX40 ECD-mFc (containing CRD1/2/3/4); assay: as above
Excerpt: as §2

[10] = target: truncant 3-mFc (containing CRD/4); assay: as above
Excerpt: as §2

truncant 2-mFc (containing CRD/3/4), sequence (chain, as listed by the source limits assumed): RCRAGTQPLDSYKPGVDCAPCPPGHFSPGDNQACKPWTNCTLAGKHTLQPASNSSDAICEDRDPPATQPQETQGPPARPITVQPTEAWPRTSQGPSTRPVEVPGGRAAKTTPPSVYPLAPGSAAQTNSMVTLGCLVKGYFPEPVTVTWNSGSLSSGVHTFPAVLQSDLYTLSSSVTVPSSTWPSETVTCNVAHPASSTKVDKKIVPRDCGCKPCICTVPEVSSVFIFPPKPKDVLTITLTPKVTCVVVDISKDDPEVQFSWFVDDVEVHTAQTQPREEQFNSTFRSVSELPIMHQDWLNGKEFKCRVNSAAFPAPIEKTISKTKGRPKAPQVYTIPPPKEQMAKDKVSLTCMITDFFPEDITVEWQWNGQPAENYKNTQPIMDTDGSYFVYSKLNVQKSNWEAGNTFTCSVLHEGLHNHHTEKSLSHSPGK
truncant 3-mFc (containing CRD/4), sequence (chain, as listed by the source limits assumed): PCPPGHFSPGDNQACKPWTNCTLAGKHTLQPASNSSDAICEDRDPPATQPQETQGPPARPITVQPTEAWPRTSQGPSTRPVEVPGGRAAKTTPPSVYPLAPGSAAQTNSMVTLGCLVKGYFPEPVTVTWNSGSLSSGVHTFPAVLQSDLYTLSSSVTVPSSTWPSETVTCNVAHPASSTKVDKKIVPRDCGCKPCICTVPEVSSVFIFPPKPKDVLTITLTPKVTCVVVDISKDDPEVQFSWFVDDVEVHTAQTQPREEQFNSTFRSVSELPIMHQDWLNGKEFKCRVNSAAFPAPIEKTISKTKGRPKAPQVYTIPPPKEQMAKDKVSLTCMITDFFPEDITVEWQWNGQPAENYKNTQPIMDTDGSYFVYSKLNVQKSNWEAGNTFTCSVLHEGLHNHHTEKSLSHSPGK
full length OX40 ECD-mFc (containing CRD1/2/3/4), sequence (chain, as listed by the source limits assumed): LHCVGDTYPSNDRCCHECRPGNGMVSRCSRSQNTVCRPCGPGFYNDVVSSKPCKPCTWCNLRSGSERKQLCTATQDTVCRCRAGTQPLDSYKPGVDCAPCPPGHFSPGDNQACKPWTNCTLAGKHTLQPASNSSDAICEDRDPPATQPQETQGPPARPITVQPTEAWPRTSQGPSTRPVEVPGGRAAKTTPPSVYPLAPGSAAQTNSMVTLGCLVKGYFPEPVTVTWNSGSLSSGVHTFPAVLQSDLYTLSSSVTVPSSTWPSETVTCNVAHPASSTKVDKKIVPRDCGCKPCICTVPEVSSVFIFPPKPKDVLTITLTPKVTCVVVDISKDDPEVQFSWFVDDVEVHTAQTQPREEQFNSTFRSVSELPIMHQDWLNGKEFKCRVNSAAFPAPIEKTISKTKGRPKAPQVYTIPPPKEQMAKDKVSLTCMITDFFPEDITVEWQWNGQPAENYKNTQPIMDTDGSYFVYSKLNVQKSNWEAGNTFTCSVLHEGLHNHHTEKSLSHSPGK
truncant 1-mFc (containing CRD2/3/4), sequence (chain, as listed by the source limits assumed): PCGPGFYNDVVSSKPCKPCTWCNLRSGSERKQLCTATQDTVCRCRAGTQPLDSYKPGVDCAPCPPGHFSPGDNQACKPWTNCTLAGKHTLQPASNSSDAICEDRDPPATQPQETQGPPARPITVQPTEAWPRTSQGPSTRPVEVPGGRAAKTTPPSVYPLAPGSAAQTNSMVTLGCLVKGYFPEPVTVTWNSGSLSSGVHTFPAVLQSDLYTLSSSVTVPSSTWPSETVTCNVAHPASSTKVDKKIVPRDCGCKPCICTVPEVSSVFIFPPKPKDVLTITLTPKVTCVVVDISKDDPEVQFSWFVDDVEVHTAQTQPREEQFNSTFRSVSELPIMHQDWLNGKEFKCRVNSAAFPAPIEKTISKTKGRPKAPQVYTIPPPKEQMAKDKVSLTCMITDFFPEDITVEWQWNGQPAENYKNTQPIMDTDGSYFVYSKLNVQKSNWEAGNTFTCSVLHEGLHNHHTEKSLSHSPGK
T2 sequence (P25942 21-193 limits assumed): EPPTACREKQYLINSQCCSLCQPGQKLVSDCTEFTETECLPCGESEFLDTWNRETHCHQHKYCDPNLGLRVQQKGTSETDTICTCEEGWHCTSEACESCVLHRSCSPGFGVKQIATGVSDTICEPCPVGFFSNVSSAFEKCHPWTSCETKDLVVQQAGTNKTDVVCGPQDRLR

binding result [6]: binds | binding result [7]: binds | binding result [8]: binds | binding result [9]: binds | binding result [10]: no binding
B1: 68C8-VH2VL3 (antibody, human IgG1, kappa, V domains shown)
VH: QVQLVQSGAEVKKPGASVKVSCKVSGDTFTSYWITWVRQRPGKGLEWMGDIHPGSGSTNNNEKFKNRVTMTVDTSTDTAYMELSSLRSEDTAVYYCATLRPYYFVYWGQGTLVTVSS
VL: DIQMTQSPSSLSASVGDRVTITCRASQDISNYLNWYQQKPGKTVKLLIYYTSRLLSGVPSRFSGSGSGTDYTLTISSLQPEDFATYFCQQGNTLPLTFGQGTRLEIKR
notes: humanized; also called 68C8-H2L3; 68C8H2L3
binding result [1]: no binding (tested: about 10000 ng/mL (log about 4)) | binding result [2]: no binding (tested: about 10000 ng/mL (log about 4)) | binding result [3]: no binding (tested: about 10000 ng/mL (log about 4)) | binding result [4]: no binding (tested: about 10000 ng/mL (log about 4)) | binding result [5]: no binding (tested: about 10000 ng/mL (log about 4))

binding result [6]: binds | binding result [7]: binds | binding result [8]: binds | binding result [9]: binds | binding result [10]: no binding
B2: 71H8-VH2VL3 (antibody, human IgG1, kappa, V domains shown)
VH: B1 VH with D27Y, H52Y, N60Q, N66S
VL: B1 VL
notes: humanized; also called 71H8-H2L3; 71H8H2L3
binding result [1]: no binding (tested: about 10000 ng/mL (log about 4)) | binding result [2]: no binding (tested: about 10000 ng/mL (log about 4)) | binding result [3]: no binding (tested: about 10000 ng/mL (log about 4)) | binding result [4]: no binding (tested: about 10000 ng/mL (log about 4)) | binding result [5]: no binding (tested: about 10000 ng/mL (log about 4))
